Source: PMC12748588, “Cryo-EM structures of plant Augmin reveal coiled-coil assembly, antiparallel dimerization, and NEDD1 binding” (Nature Communications, 2025)

T1: AUG5 with C-terminal 8xHis tag (subunit of the hetero-octamer) (A. thaliana, UniProt Q9FMB4 1-796)
T1 construct: AUGMIN subunit 5 (AUG5), A. thaliana; subunit ORF in pET3a, assembled into the eight-subunit polycistronic vector; Subunit of m1; the assembly was captured on Ni-IDA by this chain; also called AUG5 (His); not shown: His8, C-terminal, kept
T1 sequence (looked up): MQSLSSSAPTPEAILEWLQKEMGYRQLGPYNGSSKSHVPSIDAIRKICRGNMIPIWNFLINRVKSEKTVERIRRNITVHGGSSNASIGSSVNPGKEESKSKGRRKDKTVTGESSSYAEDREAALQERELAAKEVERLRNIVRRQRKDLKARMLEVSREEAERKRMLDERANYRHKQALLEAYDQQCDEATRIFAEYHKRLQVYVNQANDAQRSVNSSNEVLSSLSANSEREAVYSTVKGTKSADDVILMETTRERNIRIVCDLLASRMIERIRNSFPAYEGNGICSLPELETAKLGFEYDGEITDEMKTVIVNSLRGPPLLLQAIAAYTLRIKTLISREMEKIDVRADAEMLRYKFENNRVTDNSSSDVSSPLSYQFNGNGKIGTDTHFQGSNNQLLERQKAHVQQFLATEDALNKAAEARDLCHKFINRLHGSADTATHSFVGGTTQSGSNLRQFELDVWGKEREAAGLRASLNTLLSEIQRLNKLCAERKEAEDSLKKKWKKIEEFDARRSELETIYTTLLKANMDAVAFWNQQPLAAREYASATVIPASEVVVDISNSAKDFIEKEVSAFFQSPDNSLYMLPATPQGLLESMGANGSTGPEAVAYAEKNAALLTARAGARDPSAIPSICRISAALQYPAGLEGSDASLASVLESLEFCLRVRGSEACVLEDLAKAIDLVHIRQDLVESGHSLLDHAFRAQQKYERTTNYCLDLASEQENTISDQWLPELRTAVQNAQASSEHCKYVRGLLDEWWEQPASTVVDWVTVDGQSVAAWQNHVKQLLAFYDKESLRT

T2: AUG5 with C-terminal GFP and His tags (subunit of the hetero-tetramer) (A. thaliana, UniProt Q9FMB4 1-796)
T2 construct: AUGMIN subunit 5 (AUG5), A. thaliana; subunit ORF in the four-subunit polycistronic vector; Subunit of m2; source: E. coli SoluBL21, co-expressed with AUG1, AUG3 and AUG4, purified as part of the assembly (Ni-IDA, Q-FF, Superdex 200); not shown: His tag, C-terminal, kept
T2 sequence (looked up): T1 sequence (looked up)

B1: AUG1 (A. thaliana Augmin subunit 1) (natural protein, UniProt F4IK01 1-299, looked up)
chain: MSDVTGDLAAVSEAKGGSDAARISEVKAWLTSQFEAVGKEVPNFEYTHRSITHLYNLATASQAKSQAATIVANDFRLKASEYRAQAARIREILESAGMSQESLPSNVVSSAQVLANVANLLNIRDTELSSFLVAMGDISLRKTGVEEKRAKAQKESNALLDYTRKAIQRLTYLKKILAQLEDDVVPCESQMENWKTNLEVMAVKEEQYIQQYKKYEQMLLNRVGYTPKISHRELVEMAEHRKELDKMTKPVLDTLRSYQDLPPDKALAALAIEDKKRQFTAAEKYLEEVLQSALETNDE
notes: AUGMIN subunit 1 (AUG1), A. thaliana; subunit ORF in pET3a, assembled into polycistronic vectors; Subunit of m1 and m2; source: E. coli SoluBL21, co-expressed with the other Augmin subunits, purified as part of the assembly
B2: AUG2 (A. thaliana Augmin subunit 2) (natural protein, UniProt O48767 1-296, looked up)
chain: MSMGGDTTWVGKKPIRRIGGLSDALSIASDLGFAVAPPPSQEELQSFASSNGERGDDLIRVLRELSVVQRKIADLQVELQGRKDDKNVAHLTHVGEMQKKIETLSRITQILKDVIQNKDRIIARLQQPYSLDCIPVEAEYQKQFSELLMKAASDYGALTASVSDFQWSQNFKEPPSVWGEMLRPIPVALASCTRFFEAMSAMRESFATLQELRVGNSAVSLPTTPGGNEMTHRDSDCVTPPQGRIESSFDDLAVHKTRRQNNDQNEEEEEEEEEEDGNNNGNRRLSWPPSVKKSSV
notes: AUGMIN subunit 2 (AUG2), A. thaliana; codon-optimised ORF in pET3a, assembled into a polycistronic vector; Subunit of m1; source: E. coli SoluBL21, co-expressed with the other Augmin subunits, purified as part of the assembly
B3: AUG3 (A. thaliana Augmin subunit 3) (natural protein, UniProt Q0WQE7 1-617, looked up)
chain: MSSARLCSLVAELGYEGAGKLDPDSFEWPFQYDDARPILDWICSSLRPSNVLSLAELSLYEQFQRDGKLLEGDDLDQAYDSISAFSSRRNNQEAVFGAEESIKEVRDATLAHKAEALELQRQLRRLQTQYDLLTGQSSALIQGRRARVAATSAVSGQITAIEDSLSARNLQMNGVLGRLASTSQELAHYHSGEEDGIYLAYSDFHAYLAGDSACTKELNQWFAKQLDTGPYRLVAEEGKSKCSWVSLDDTSNMLRDLEKSQHQRVAELQRLRSIFGTSERQWIEAQVENAKQQAILLTLKSQVTSVEAHIHFDLHSLRRKHADLVEEISTLYQKEEKLLSETIPELCWELAQLQDTYILQGDYDLKVMRQELYISKQKVFINHLVNQLARHQFLKLACQLEKKNMLGAFSLLKVIESELQGYLSATRSRVGRCSALIQAASDVQEQGAVDDRDSFLHGVRDLLSIHSNTQAGLSTYVSAPAIIQQIVALQSDLSSLQSDLENSLPDDRNRCINELCTHIQNLQQLLFASSTTAQPILTPWPLMKELDEMGKINSKLSTAVEEVTLEHRNKREIVKHHAKDVELQRRVFVDFFCNPERLRNQVRELNALVRARQASSS
notes: AUGMIN subunit 3 (AUG3), A. thaliana; subunit ORF in pET3a, assembled into polycistronic vectors; Subunit of m1 and m2; source: E. coli SoluBL21, co-expressed with the other Augmin subunits, purified as part of the assembly
B4: AUG7 (A. thaliana Augmin subunit 7) (natural protein, UniProt Q0WTP1 1-329, looked up)
chain: MAAKQMEEIQKKLRLLSYPRANAPAQSLLFAGMERYALLEWLFFKLLGDKSPFSQQNLQGDAGVRDEETVRIQYLAEIAKFLGITPTVDIEAIQGHGTYEDRMEMLRNIVDLVEASLFSDNQEWSIDEQVAKDIQLIDAIAERQSLIFSEECKLFPADVQIQSIYPLPDVSELETKLSEQAKILSNLQQKVDDLAAKHAYNPDEEYTEVESQLRARLESFLETARAFNTIYTKEIRPWTHMMEVPQLHGFGPAANRLLEAYNMLLKFLGNLKNLRDSHAALSIGSSGTVAGEPSSVTRIVSDCEAALTVLNRDLGILSASIAREQGERL
notes: AUGMIN subunit 7 (AUG7), A. thaliana; codon-optimised ORF in pET3a, assembled into a polycistronic vector; N-terminal CH domain; Subunit of m1; source: E. coli SoluBL21, co-expressed with the other Augmin subunits, purified as part of the assembly
B5: AUG6 with C-terminal StrepII tag (natural protein, A. thaliana, UniProt Q94BP7 1-741, looked up)
chain: MTMDREKERELELESAMYTNCLLLGLDPNVIGLGASNGTPRVGLFRHSNPKLGEQLLYFILSSLRGPAQSSKDFDKVWPIFDSAQSRDFRKVVQAIISELESQGALPRSNSRVSSLATCCGPRFVELLWQLSLHALREVHRRTFPADVASNPLPSSLTDVSFSHAATLLPVTKARIVLERRRFLKNAETAVQRQAMWSNLAHEMTAEFRGLCAEEAYLQQELEKLNDLRNKVKQEGEVWDDLVSSSSQNSHLVSKATRLWDSIMARKGQHEVLASGPIEDLIAHREHRYRISGSALLAAMDQSSQVPRAELLSAHSDDSASLADDKELSDGSYTNMHDHSLVDSFETASSQASDETLSRVDDRGGKINQTVDVAEVIRRWTHALQRIHKQSLLLAKANDGDGPDILRTASDGGTSGHVESLAATLTEHQQHLASFQVLINQLKEVSPAIQKSISECTEMVNSLPPTLPPVTRSNGQASSLLQSQGSGRIMEGVSNDVAELTSTMSNVQLEKVSASPTLKLPQLFSSTPTSSGKGGNGQKRQTMASQVNKMESLSEKNSTDQALSNARPDNLPTDTSSSFVHNLKKSVREAALLIPSSAGSSRDSQSDEGSEHYFVPLSATGFSRFPSETKALPLRGSRALTSLSEPSFLEPNVPDSFAPSKYSDIPDTYDDLDSFKDYDNGNGFLSVAGSNSVASDAQQSFYDIDDQVFSPPLLMDSSLLSDAYEDLLAPLSETEAALMEH
notes: AUGMIN subunit 6 (AUG6), A. thaliana; ORF in pET3a, assembled into a polycistronic vector; N-terminal CH domain; its C-terminal region is prone to degradation; Subunit of m1; also called AUG6-StrepII; source: E. coli SoluBL21, co-expressed with the other Augmin subunits, purified as part of the assembly
B6: AUG4 (A. thaliana Augmin subunit 4) (natural protein, UniProt Q8GYM3 1-423, looked up)
chain: MVKALQGAAQNLPADVNQLIDQLERHCLAPDGSLVTKSVYSDLQLAREEMSRERLRYLEAMAIYCEAVAMVEEYQQAISVANHGGIRDVQGLYPQLGLKNSPQVYETLEHRLVVAEAAQKLRLPLISDGGEIHEEEIEKWSILSRSSLDSASTSFTISSTSNSVNYANSSANSVAGGISLSAVDTDVVGGVPNRFLGITPAYLSYVQLQNTISMDMADYQMFLAREIEGRLKEKCDKLADAIVDDTDSSTGNRNSSARLPERVKFIIEEIERDEAALREDLYSADRKFAEYYNVLEQILGVLIKLVKDLKLEHQHKYNEMQKTWLCKRCETMNAKLRVLENVLLLETYTPDSISALHNIRNYLVEATEEASAAYNKAVTRLREYQGVDPHFDTIARQYHDIVKKLENMQWTIHQVEMDLKSHD
notes: AUGMIN subunit 4 (AUG4), A. thaliana; subunit ORF in pET3a, assembled into polycistronic vectors; Subunit of m1 and m2; source: E. coli SoluBL21, co-expressed with the other Augmin subunits, purified as part of the assembly

biological target: AUG5 with C-terminal 8xHis tag (subunit of the hetero-octamer) (A. thaliana) (UniProt Q9FMB4); experiment: SEC-MALS + other: mass photometry; co-expressed assemblies purified by Ni-IDA (AUG5 His tag), Q-FF and gel filtration; subunits confirmed by SDS-PAGE and mass spectrometry; SEC-MALS on Superdex 200 Increase 10/300, 200 µL at 1 mg/mL, 50 mM HEPES pH 7.5, 200 mM KCl, 1 mM MgCl2, 1 mM EGTA; conditions: not given

stoichiometry N (subunit per assembly) | Molecule
1 | AUG8 C-terminal region (residues 383-644) (from UniProt Q9SUH5 383-644) (domain or fragment)

biological target: T1, AUG5 with C-terminal 8xHis tag (subunit …); experiment: as above; conditions: both partners purified

stoichiometry N | Molecule
1 subunit per assembly | B1
1 subunit per assembly | B2
1 subunit per assembly | B3
1 subunit per assembly | B4
1 subunit per assembly | B5
1 subunit per assembly | B6

biological target: T2, AUG5 with C-terminal GFP and His tags …; experiment: as above; conditions: both partners purified

stoichiometry N | Molecule
1 subunit per assembly | B1
1 subunit per assembly | B3
1 subunit per assembly | B6
